Results on five molecules are retold here after patent US20070254831A1 (published 2007).

Bridge positions count the residues as written; N and C are the ends. Square brackets hold non-standard residues; d marks the D form. Ends that are not written are not given here. Pen = CC(C)(S)[C@H](N)C(=O)O

The target of test [1] is T1, soluble human FcRn (human, UniProt P55899 24-297; P61769 21-119, biotinylated (Sulfo-NHS-LC-Biotin) in the ELISA; amine-coupled to CM5 chip in SPR).
T1 construct: also called shFcRn; biotinylated shFcRn
As to the kind of experiment: SPR, pH 6.
Method: (§1) The following steps were performed to cross-link soluble human or cynomolgus FcRn to the dextran surface of a CM5 sensor chip (Biacore AB, Uppsala, Sweden) by an amine coupling reaction involving 1-ethyl-(3-dimethylaminopropyl)-carbodiimide hydrochloride (EDC) (Biacore AB, Uppsala, Sweden) and N-hydroxysuccinimide (NHS) (Biacore AB, Uppsala, Sweden) as recommended by Biacore (BIAapplications Handbook, version AB, section 4.2, Biacore AB, Uppsala, Sweden). […] Residual sites on the FcRn flow cell were blocked with 1 M ethanolamine hydrochloride pH 8.5 (Biacore AB, Uppsala, Sweden). A control flow cell was blocked with ethanolamine for reference subtraction. For analysis of the monomeric peptides, FcRn was coated to a final density of 4000-5000 response units (RU). For analysis of the peptide dimers, FcRn was coated to a density of 2000-2500 RU. All SPR measurements were performed using a BIACORE 3000 Instrument (Biacore AB Uppsala, Sweden). For measurements done at either pH 6 or pH 7.4, experiments were performed in 50 mM phosphate, 100 mM sodium chloride, 0.01% surfactant P20 (Biacore AB, Uppsala, Sweden).
(§2) Ten, 2-fold dilutions of the peptide were injected over the FcRn-CM5 chip at a rate of 20 μl/min for 2 min. The peptide was dissociated from the chip for 2.5 minutes with buffer. Any remaining peptide was removed from the chip with a 30 second injection of HBS-P buffer (Biacore AB, Uppsala, Sweden) at a rate of 30 μl/min. Sensorgrams were generated and analyzed using BiaEval software version 3.1 (Biacore AB, Uppsala, Sweden). The equilibrium RU observed for each injection was plotted against concentration. The equilibrium KD values were derived by analysis of the plots using the steady state affinity model included in the BiaEval software.

Test [2] addresses T1, soluble human FcRn. As to the kind of experiment: SPR, pH 6. The source holds these as a separate data set. In general terms: In SPR one partner is held on a chip, and binding of the other changes the refractive index at the surface.
Method: as §1, §2
Test [3] concerns the target T1, soluble human FcRn. As to the kind of experiment: SPR, pH 6. This is another data set of the same source.
Method: as §1
(§3) Ten, 2-fold dilutions of the peptide were injected over the FcRn-CM5 chip at a rate of 20 μl/min for 2 min. The peptide was dissociated from the chip for 2.5 minutes with buffer. […] Sensorgrams were generated and analyzed using BiaEval software version 3.1 (Biacore AB, Uppsala, Sweden). […]
Test [4] has as its target T1, soluble human FcRn. As to the kind of experiment: SPR, pH 6. This is another data set of the same source.
Method: as §1, §2
Test [5] has as its target T1, soluble human FcRn. As to the kind of experiment: SPR, pH 6. This is another data set of the same source.
Method: as §1, §3
The target in test [6] is T1, soluble human FcRn. As to the kind of experiment: SPR, pH 6. The source holds these as a separate data set.
Method: as §1, §2
Test [7] deals with T1, soluble human FcRn. As to the kind of experiment: SPR, pH 6. This is another data set of the same source.
Method: as §1, §2
In test [8] the target is T1, soluble human FcRn. As to the kind of experiment: SPR, pH 6. This is another data set of the same source.
Method: as §1, §2
Test [9] deals with T1, soluble human FcRn. As to the kind of experiment: SPR, pH 6. This is another data set of the same source.
Method: as §1, §2
In test [10] the target is T1, soluble human FcRn. As to the kind of experiment: SPR, pH 6. The source holds these as a separate data set.
Method: as §1, §3
The target in test [11] is T1, soluble human FcRn. As to the kind of experiment: SPR, pH 6. The source holds these as a separate data set.
Method: as §1, §2
Test [12] has as its target T1, soluble human FcRn. As to the kind of experiment: ELISA, competitor human IgG. (In general: An ELISA detects its analyte on a solid surface through an enzyme-linked reagent.)
Method: (§4) The wells were coated with 100 μl/well of 1 μg/ml biotinylated-shFcRn in Buffer A. The plate was sealed and incubated at 37° C. for 2 hours. Afterwards, the plate washed with 200 μl/well of Buffer B (Buffer B: 100 mM MES pH 6, 150 mM NaCl, 0.5% BSA IgG-free (Jackson ImmunoResearch, West Grove, Pa.), 0.05% Tween-20). […] To allow for mixing, the plate was rocked for 2 minutes, sealed and incubated at 37° C. for 2 hours. […] The plate was covered, incubated for 30 minutes at room temperature and washed 4 times with 200 μl/well of ice-cold buffer B. SureBlue TMB substrate solution (100 μl/well, KPL, Gaithersburg, Md.) was added and the plate was allowed to incubate at room temperature until color developed, which took 5 to 10 minutes. Once color developed, 100 μl/well of TMB stop solution (KPL, Gaithersburg, Md.) was added and the absorbance was measured at 450 nm. The data was plotted as absorbance vs. peptide concentration to derive the inhibitory concentration 50% (IC₅₀) values.
The target of test [13] is T1, soluble human FcRn. As to the kind of experiment: ELISA, competitor human IgG. This is another data set of the same source.
Method: as §4
The target in test [14] is T1, soluble human FcRn. As to the kind of experiment: ELISA, competitor human IgG. This is another data set of the same source.
Method: as §4
Test [15] addresses T1, soluble human FcRn. As to the kind of experiment: ELISA, competitor human IgG. This is another data set of the same source.
The target of test [16] is T1, soluble human FcRn. As to the kind of experiment: ELISA, competitor human IgG. This is another data set of the same source.
Method: as §4
Test [17] deals with T1, soluble human FcRn. As to the kind of experiment: ELISA, competitor human IgG. The source holds these as a separate data set.
Method: as §4
In test [18] the target is T1, soluble human FcRn. As to the kind of experiment: ELISA, competitor human IgG. The source holds these as a separate data set.
Method: as §4
Test [19] has as its target T1, soluble human FcRn. As to the kind of experiment: ELISA, competitor human IgG. The source holds these as a separate data set.
Method: as §4
Test [20] has as its target T1, soluble human FcRn. As to the kind of experiment: ELISA, competitor human IgG. This is another data set of the same source.
Method: as §4
In test [21] the target is T1, soluble human FcRn. As to the kind of experiment: ELISA, competitor human IgG. The source holds these as a separate data set.
Method: as §4
The target in test [22] is T1, soluble human FcRn. As to the kind of experiment: ELISA, competitor human IgG. This is another data set of the same source.
Method: as §4
The target in test [23] is T1, soluble human FcRn. As to the kind of experiment: SPR, pH 7.4.
Method: as §1, §3
The target of test [24] is T1, soluble human FcRn. As to the kind of experiment: SPR, pH 7.4. This is another data set of the same source.
Method: as §1, §3
In test [25] the target is T1, soluble human FcRn. As to the kind of experiment: SPR, pH 6. This is another data set of the same source.
Method: as §1, §3
Test [26] has as its target T1, soluble human FcRn. As to the kind of experiment: SPR, pH 7.4. This is another data set of the same source.
Method: as §1, §3
In test [27] the target is T1, soluble human FcRn. As to the kind of experiment: ELISA, competitor human IgG. The source holds these as a separate data set.
Method: as §4
The target of test [28] is T1, soluble human FcRn. As to the kind of experiment: assay not named for Table 26, taken as the IgG competition ELISA.

T1 sequence (P55899 24-297 limits assumed, chain 1 of 2): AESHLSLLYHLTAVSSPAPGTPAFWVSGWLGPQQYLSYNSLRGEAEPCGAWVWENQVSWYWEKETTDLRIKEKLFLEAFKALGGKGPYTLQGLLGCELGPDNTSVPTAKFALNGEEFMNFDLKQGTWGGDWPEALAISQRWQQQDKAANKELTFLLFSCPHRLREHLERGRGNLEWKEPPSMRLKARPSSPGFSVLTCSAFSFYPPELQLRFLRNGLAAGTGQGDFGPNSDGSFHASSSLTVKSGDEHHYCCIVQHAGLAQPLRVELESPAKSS
T1 sequence (P61769 21-119 limits assumed, chain 2 of 2): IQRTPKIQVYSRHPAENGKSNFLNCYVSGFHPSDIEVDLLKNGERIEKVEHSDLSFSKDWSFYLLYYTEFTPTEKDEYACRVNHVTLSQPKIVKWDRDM

For the molecule QRFXTGHFGGLYPCNGP (Pen (L-penicillamine) at 4; disulfide; C-terminal amide) [Peptide No. 32], the Kd with soluble human FcRn [1], with soluble human FcRn [2], with soluble human FcRn [3], with soluble human FcRn [4], with soluble human FcRn [5] and in the test with soluble human FcRn [6] was 250 nM in each case. In addition, the Kd with soluble human FcRn [7], with soluble human FcRn [8], with soluble human FcRn [9], in the test with soluble human FcRn [10] and with soluble human FcRn [11] was 250 nM in each case. The 50% inhibitory concentration (IC50) with soluble human FcRn [12], in the test with soluble human FcRn [13], with soluble human FcRn [14], with soluble human FcRn [15], in the test with soluble human FcRn [16] and with soluble human FcRn [17] was 2000 nM throughout. For the same molecule, the IC50 with soluble human FcRn [18], with soluble human FcRn [19], in the test with soluble human FcRn [20], with soluble human FcRn [21] and with soluble human FcRn [22] was 2000 nM in each case.

B1: Peptide No. 296 (peptide)
peptide: QRF[Pen]HGHFGGLYPCNGP-NH2
modifications: disulfide 4-14; N-terminus assumed
SMILES: CC(C)C[C@@H]1NC(=O)CNC(=O)CNC(=O)[C@H](Cc2ccccc2)NC(=O)[C@H](Cc2c[nH]cn2)NC(=O)CNC(=O)[C@H](Cc2c[nH]cn2)NC(=O)[C@@H](NC(=O)[C@H](Cc2ccccc2)NC(=O)[C@H](CCCNC(=N)N)NC(=O)[C@@H](N)CCC(N)=O)C(C)(C)SSC[C@@H](C(=O)N[C@@H](CC(N)=O)C(=O)NCC(=O)N2CCC[C@H]2C(N)=O)NC(=O)[C@@H]2CCCN2C(=O)[C@H](Cc2ccc(O)cc2)NC1=O
In the case of B1, the Kd turned out to be 150 nM in the test with soluble human FcRn [6] and 960 nM with soluble human FcRn [23]. The molecule also returned an IC50 with soluble human FcRn [17] of 3000 nM.

Turning to QRFXTGHFGGHYPCNGP (Pen at 4; disulfide; C-terminal amide) [Peptide No. 84], the results for the Kd with soluble human FcRn [9] and in the test with soluble human FcRn [24] were 380 nM and 2500 nM, respectively.

B2: Peptide No. 122 (peptide)
peptide: QRFDTGHFGGLYPKNGP
modifications: also: bromoacetylated peptide joined to a SATP-derivatized peptide (dimer), further groups not given here
For the molecule B2, the Kd in the test with soluble human FcRn [25] came to 6 nM; in the test with soluble human FcRn [26], 120 nM. In addition, the IC50 with soluble human FcRn [27] turned out to be 970 nM.

B3: Peptide No. 289 (peptide)
peptide: RFXTGHFGGLYPC
modifications: not fully specified; Pen at 3; Sar at 9; NMeLeu at 10; intrachain disulfide; C-terminal amide; N-termini joined by an Asp linker that carries PEG 30 kDa
notes: structure only as drawing CHEM-US-00138; also called Pegylated Analog of Peptide No. 285
Molecule B3 came in with an IC50 with soluble human FcRn [28] of 18 nM.

Broadly, the Kd is the concentration at which binding is half-saturated. Lower therefore signals a tighter complex. What is called IC50 is the concentration needed to halve the response being measured. The low end stands for greater potency in that assay, the high end for weaker potency in that assay.
